Measured values as given in the MegaScale stability set (Tsuboyama et al. 2023).

B1: EEHEE_rd4_0763 (parent)
chain: LTVHVGNVTYHFDNPEQAEEWAKRMAKKYQGQIHVKDGQFRIE
B2: EHEE_rd2_1257 (parent)
chain: EEERTFTNEEEARKAKKEAEKRGLRVTVTKDGTTWRVRIG

Variants of: B1
Assay: folding stability dG (cDNA display proteolysis); higher = more stable
Settings: PBS, room temperature

Variant	folding stability dG [kcal/mol]
E19P	0.646
E19N	1.35
L1S	2.03
L1V	1.86
A22P	-0.823
A22E	0.234
M25D	-0.162
M25S	0.407
M25R	0.567
M25E	0.535
G38M	0.911
H4G	0.951
K28H	1.53
K28G	0.692
N7I	1.49
N14T	1.76
Y10E	0.183
F12I	0.276
E43D	1.44
R41P	1.21
H11G	0.755
E16C	2.54
D37L	1.12
D37Q	0.814
I42F	1.02

Variants of: B2
Assay: as above
Settings: PBS, room temperature

Variant	folding stability dG [kcal/mol]
T27D	1.05
T27A	1.19
T27Y	1.92
T27F	1.83
T27M	1.53
T27W	1.96
T27N	1.15
T27H	1.57
T27E	1.64
T27G	0.262
T27K	1.43
R4W	3.03
R4A	1.59
R4M	2.53
R4T	1.61
R4I	2.38
R4D	0.771
R4N	1.14
T5H	1.68
T5W	2.45
T5E	1.65
T5V	2.47
T5Y	2.17
T5G	0.704

Variant	folding stability dG [kcal/mol]
T5Q	1.6
T5K	1.17
T5F	2.19
T5M	1.94
E20C	1.45
E20K	1.14
E20T	1.11
E20H	0.935
E20D	0.837
E20S	0.861
E20W	1.27
E20I	1.63
E20N	0.952
E20A	1.2
E20L	1.69
K16Y	2.2
K16N	-0.159
K16L	1.95
K16C	2.25
K16G	2.33
K16Q	2.91
K16T	1.89
K16M	2.66
K16W	2.37

Variant	folding stability dG [kcal/mol]
K16A	3.56
T33M	2
T33L	2.12
T33C	2.5
T33E	2.77
T33V	1.84
T33F	2.18
T33A	2.13
T33W	1.65
T33Y	2.15
T33H	2.11
T33S	2.15
T34S	1.82
T34N	2.02
T34L	2.76
T34R	1.87
T34K	1.97
K17I	2.5
K17H	2.24
K17F	2.36
K17R	2.3
K17N	2.15
K17M	2.48
L24F	2.15

Variant	folding stability dG [kcal/mol]
L24W	1.61
L24R	1.19
L24M	1.79
L24N	0.631
L24E	0.879
L24T	0.162
L24Y	2.08
L24A	0.982
L24I	1.16
F6L	0.227
F6Y	2.19
R25M	1.81
R25E	1.5
R25P	1.47
R25I	1.95
R25T	1.9
R25Y	2.07
R25D	1.23
R25A	1.62
R36H	1.81
R36Q	1.23
R36S	1.17
R36A	0.9
R36W	1.7

Variant	folding stability dG [kcal/mol]
R36F	2.23
R36K	2.08
R36N	1.12
E11Y	0.886
E11K	0.826
E11T	0.995
E11W	1.07
E11S	1.46
E11V	0.538
E11M	1.55
E11L	1.31
E2I	2.5
E2G	1.66
E2K	1.73
E2T	2.18
E2W	2.86
E2H	2.12
E2S	2.06
T7E	1.94
T7C	1.95
T7Y	2.06
T7R	1.58
T7N	1.98
T7M	1.89

Variant	folding stability dG [kcal/mol]
T7L	1.79
T7P	1.69
K30H	2.22
K30I	1.66
K30F	3.53
K30V	1.83
K30D	1.24
K30A	1.53
K30P	0.867
A12Y	1.34
A12L	0.876
A12M	2.08
R38K	2.08
R38F	2.23
R38W	2.11
R38L	2.27
R38E	1.48
R38N	1.71
R38Y	2.17
R38G	0.853
R38H	1.94
R38T	2.33
R38M	2.04
V37Y	-0.22

Variant	folding stability dG [kcal/mol]
V37P	0.556
V37W	0.056
V37C	1.05
V37E	0.078
G40W	3.26
G40P	0.916
G40D	2.18
G40E	2.56
G40H	2.68
G40S	2.6
G40I	2.71
G40Q	2.38
K14H	2.01
K14I	2
K14L	2.1
K14V	1.83
K14F	1.94
K14R	2.17
K14Y	2.02
K14M	2.15
K14N	2.11
E18A	1.84
E18S	1.4
E18D	1.91

Variant	folding stability dG [kcal/mol]
E18I	1.48
E18F	1.56
E18T	1.33
E18N	1.48
E18V	1.3
I39G	-0.238
I39H	0.156
I39L	1.31
I39E	0.258
I39P	0.239
I39F	1.75
I39K	-0.799
I39T	1.27
I39W	1.62
R13I	2.74
R13S	1.82
R13Q	2.32
R13N	2.35
R13Y	2.92
R13G	1.37
W35H	0.478
W35P	0.178
W35Q	-0.107
W35I	1.3

Variant	folding stability dG [kcal/mol]
W35G	-0.505
W35D	-0.409
W35N	-0.29
W35R	0.023
W35K	-0.11
W35S	-0.143
K21Q	2.17
K21M	2.45
K21A	2.53
K21S	2.38
K21L	2.31
K21R	2.19
K21T	1.88
D31V	2.27
D31C	2.04
D31G	0.303
D31H	1.78
D31N	1.57
D31W	1.51
A19M	2.11
A19V	0.703
A19E	0.159
A19G	1.06
A19F	2.11

Variant	folding stability dG [kcal/mol]
A19N	0.597
A19T	0.176
A19K	0.052
E3A	1.34
E3Y	2.08
E3T	1.99
E3P	0.936
E3H	1.42
E3M	1.88
E3F	2
E3Q	1.44
G32V	0.363
G32Q	0.902
G32K	0.693
G32S	0.582
G32I	-0.071
G32N	0.966
G32H	0.713
G32R	0.337
G32E	1.26
G32T	0.399
E1K	1.7
E1Q	1.94
E1N	1.87

Variant	folding stability dG [kcal/mol]
E1G	2.25
E1I	2.74
E1H	2.05
E1F	2.99
E1M	2.38
E1D	2.1
E1A	2.21
E1S	2.02
V26A	2.13
V26P	-0.777
V26W	0.008
V26T	0.897
V26F	0.359
R22G	1.02
R22Y	1.69
R22L	2.19
R22K	1.8
R22F	1.62
R22H	1.72
R22C	1.55
E10F	2.01
E10M	2.02
E10T	1.81
E10N	1.86

Variant	folding stability dG [kcal/mol]
E10W	2.57
E10S	1.89
E10H	1.96
E10C	2.31
E10V	1.86
E9Y	2.73
E9F	2.37
E9M	1.55
E9K	1.58
E9H	1.45
E9W	2.9
E9I	1.96
T29G	0.178
T29F	2.32
T29N	1.09
T29H	1.7
T29Q	1.63
T29E	1.87
T29W	2.6
T29M	1.83
T29C	1.83
G23S	0.399
G23F	0.9
G23V	0.034

Variant	folding stability dG [kcal/mol]
G23A	0.188
G23W	0.38
G23M	0.537
G23L	0.537
N8R	1.49
N8A	1.07
N8G	0.865
N8Q	1.12
N8L	1.52
N8E	1.35
N8K	1.5
A15Q	0.698
A15Y	3.31
A15I	1.43
A15L	2.02
A15K	0.42
A15W	3.04
A15R	0.547
V28W	0.937
V28M	2.37
V28C	1.96
